{"source": "patent US9987329B2", "about": "“Methods for treating peripheral nerve damage” (Cornell University, priority 2014, dated 2018)", "molecules": {"B1": {"name": "recombinant mouse VEGF-B^186 (protein, listed as Homo sapiens)", "chain": "MSPLLRRLLLAALLQLAPAQAPVSQPDAPGHQRKVVSWIDVYTRATCQPREVVVPLTVELMGTVAKQLVPSCVTVQRCGGCCPDDGLECVPTGQHQVRMQILMIRYPSSQLGEMSLEEHSQCECRPKKKDSAVKPDRAATPHHRPQPRSVPGWDSAPGAPSPADITHPTPAPGPSAHAAPSTTSALTPGPAAAAADAAASSVAKGGA", "notes": "vascular endothelial growth factor B; recombinant mouse VEGF-B186 (R&D 767-VE-010)"}}, "key": {"[1]": {"test_system": "trigeminal ganglion (TG) neuronal cells", "experiment": "Trigeminal ganglion neuronal growth assay", "format": "cell-based, mouse", "method": "Trigeminal ganglion (TG) neuronal cells were obtained and cultured as described previously. Pan, Z., Fukuoka et al., FASEB J. 27, 2756-2767 (2013). To evaluate the effect of VEGF-B on neuronal growth, TG neuronal cells were treated with 10-100 ng/ml recombinant mouse VEGF-B^186 (R&D 767-VE-010). The VEGF-B treatments were replenished every other day. Neurite formation and growth was followed up to 3 days. […] VEGF receptors were inhibited by using neutralizing antibodies against VEGFR1 (R&D AF471), VEGFR2 (R&D MAB4431) and Neuropilin 1 (NRP1) (R&D MAB566). TG cells were incubated in a dose dependent manner with anti-VEGFR1, anti-VEGFR2 or anti-NRP1 for 1 hour prior to the addition of 50 ng/ml VEGF-B. The tyrosine kinase domains of VEGFR2 were inhibited with specific inhibitors by incubating TG neuronal cells with 10 μM SU 1498 (Sigma T4192) or 5 nM Ki 8751 (Sigma K1265) for 1 hr before adding 50 ng/ml VEGF-B. All neurite growth was imaged with an AxioObserver Z1 fluorescence microscope in the YFP channel attached to an AxioCam HRm digital camera (Zeiss) operated by AxioVision 4.0 software. Images were analyzed using Neurolucida 9 (MBF Bioscience) a quantitative nerve tracing software."}, "TG neuronal cells": {"test_system": "TG neuronal cells", "experiment": "Cell viability assay (Live/Dead) of TG neuronal cells", "format": "cell-based, mouse", "details": "50 ng/ml single dose on first day of culture without serum; day 2 and 3", "method": "The effect of VEGF-B on the survival of TG neuronal cells was evaluated with the Live/Dead Viability/Cytotoxicity kit (Invitrogen), as described in Pan, Z., Fukuoka et al., FASEB J. 27, 2756-2767 (2013)."}, "[2]": {"test_system": "corneal sensation of C57BL/6 and Vegf-b−/− mice", "experiment": "Corneal nerve sensation testing (von Frey Hairs)", "format": "in vivo, mouse", "method": "The degree of recovered nerve sensation in the injured cornea was evaluated using calibrated von Frey Hairs (North Coast Medicals). In this method the center of the cornea of un-anesthetized mouse was touched with thin filaments of ascending stiffness (0.008 to 1.4 g) until the hairs buckled and a blink response was elicited. C57BL/6 wild type and Vegf-b^−/− mice subjected to corneal epithelial debridement and receiving subconjuntival injection of VEGF-B, as well as their respective controls, were evaluated to determine the minimal force (g) needed for a blink response. Eight mice were tested in each group in three individual experiments."}, "[3]": {"test_system": "corneal nerves of thy1-YFP mice", "experiment": "Corneal micropocket assay (VEGF-B releasing pellet)", "format": "in vivo, mouse", "method": "A sucralfate/hydron pellet impregnated with VEGF-B (100 ng/pellet) or vehicle was implanted into a corneal micropocket in anesthetized thy1-YFP mice subjected to a partial lamellar incision parallel to the limbus. Rogers, M. S. et al., The mouse cornea micropocket angiogenesis assay, Nature protocols 2, 2545-2550 (2007). Mice were allowed to recover for a day, after which a subset received a corneal debridement that removed a circular 2-mm region of central epithelium and the underlying sub-basal nerves. The corneas were harvested 3 days later, fixed in 4% paraformaldehyde (PFA) for 30 minutes, mounted in Vectashield medium (Vector Labs H1000) as whole mounts, and nerves imaged using the AxioObserver system as described above.\nHarvested corneas from thy1-YFP mice were fixed in 4% PFA for 1 hr and then stained with 4,6-diamidino-2-phenylindole (DAPI) to label nuclei before mounting. The YFP fluorescent nerves were imaged with a fluorescence microscope at the site of pellet implantation and at a site 180 degrees opposite to the pellet. Images were analyzed using Neurolucida. […] wild type and Vegf-b^−/− mouse corneas were flat mounted and fixed as described. Pan, Z., Fukuoka et al., FASEB J. 27, 2756-2767 (2013). Samples were stained with rabbit anti-β3 tubulin antibody (Abcam 18207) overnight at 4° C., followed by alexaFluor568-conjugated goat anti-rabbit IgG (Life Technologies A11011) at room temperature for 1 hr and counter-stained with DAPI."}, "[4]": {"test_system": "corneal epithelium of C57BL/6 and Vegf-b−/− mice", "experiment": "Corneal epithelial wound healing after debridement (fluorescein staining)", "format": "in vivo, mouse", "details": "0.5 ng subconjunctival, 48 hours (FIG. 6A)", "method": "(§1) Wild type C57BL/6 and Vegf-b^−/− mice were subject to corneal epithelial debridement as described above or left intact. A 5 ul volume containing 0.5 ng VEGF-B^186 in PBS was injected subconjunctivally, at the lateral temporal bulbar conjunctiva, using a 10-μl micro-syringe (Hamilton Co). Equal volume of 0.1% bovine serum albumin (BSA) was used in control mice. The recovery of the corneal epithelial injury was imaged at 24, 40 and 48 hours by applying 1% fluorescein solution to the corneal surface and wounds photographed under diffuse cobalt blue light attached to a slit lamp bio-microscope (Nikon FS-3, Nikon) connected to a digital camera (Canon EOS 60D). The corneal epithelial defect areas were quantified by analyzing the images with Photoshop CS4 (Adobe). Corneas were harvested after one week for immunodetection of nerves. Possible growth of blood vessel into the cornea was monitored by slit lamp examination."}, "[5]": {"test_system": "corneal nerves of Thy-1-YFP mice", "experiment": "Corneal nerve regeneration with combinations of VEGF-A and VEGF-B", "format": "in vivo, mouse", "details": "ligand administered separately, two weeks post-injury (FIG. 14)", "method": "Thy-1-YFP mice were subjected to cornea epithelium debridement to ablate the superficial nerve endings that innervate the cornea Immediately after injury, the mice were treated with different combinations of VEGF-A and VEGF-B. As shown, combinations of VEGF ligands induce greater nerve regeneration in vivo.\nThe observed effects were also recapitulated in vivo. Thy-1-YFP neurofluorescent mice were used to induce a corneal epithelium injury that results in ablation of the superficial nerve endings of the cornea. The mice were then treated with different combinations of VEGF-A and VEGF-B, and nerve regeneration was analyzed after two weeks post-injury."}, "cornea": {"test_system": "cornea", "details": "mouse, in vivo", "method": "as §1"}, "[6]": {"test_system": "trigeminal ganglion (TG) neuronal cells", "experiment": "Trigeminal ganglion neuronal growth assay", "format": "cell-based, mouse", "details": "VEGF-B on three consecutive days, culture day 6 (FIG. 11)"}, "[7]": {"details": "50 ng/ml each, three days in culture (FIG. 2B)"}, "[8]": {"details": "50 ng/ml, three days in culture (FIG. 2B)"}}}
{"molecule": "B1", "values": [{"measurement": "length of neurites compared with untreated controls", "setting": "[1]; 50 ng/ml VEGF-B, 3 days in culture (FIG. 1)", "result": "almost four folds greater"}, {"measurement": "neurite elongation compared with VEGF-A treatment", "setting": "[1]; [7]", "result": "more than 2 folds"}, {"measurement": "number of branching nodes compared with VEGF-A treated neurons", "setting": "[1]; [7]", "result": "more than 4 folds"}, {"measurement": "pattern of neurite growth (elongation and branching)", "setting": "[1]; 50 ng/ml, three days in culture (FIG. 2A)", "result": "extensive elongation and branching of the neurites"}, {"measurement": "neurite elongation compared with untreated control", "setting": "[1]; [8]", "result": "five folds higher"}, {"measurement": "number of branching nodes compared with untreated control", "setting": "[1]; [8]", "result": "seven fold higher"}, {"measurement": "dose dependence of neurite growth induction", "setting": "[1]; 10-100 ng/ml VEGF-B (FIG. 7)", "result": "dose-dependent"}, {"measurement": "most potent dose for inducing neurite elongation and branching", "setting": "[1]; increasing concentrations of VEGF-B, 3 days in culture (FIG. 7)", "result": 50, "unit": "ng/mL"}, {"measurement": "cells surviving (neuronal viability)", "setting": "TG neuronal cells", "result": 50, "unit": "%"}, {"measurement": "corneal sensation compared with untreated Vegf-b−/− mice", "setting": "[2]; Vegf-b−/− mice, 2 weeks post-injury (FIG. 4F)", "result": "significantly improved sensation"}, {"measurement": "functional recovery of corneal sensation", "setting": "[2]; wild type and Vegf-b−/− mice, 7 days of treatment (FIG. 4E)", "result": "began to improve"}, {"measurement": "corneal sensation", "setting": "[2]; wild-type mice, 2 weeks post-injury (FIG. 4F)", "result": "completely restored"}, {"measurement": "innervation at sites of injury", "setting": "[3]; 100 ng/pellet plus superficial corneal debridement, versus vehicle, 3 days", "result": "significantly increased innervation throughout sites of injury"}, {"measurement": "corneal nerve density or patterning", "setting": "[3]; 100 ng/pellet, absence of injury, 3 days", "result": "no alteration of corneal nerve density or patterning"}, {"measurement": "nerve density at the site of pellet implantation", "setting": "[3]; 100 ng/pellet, limited (focal) injury, versus vehicle", "result": "significant increased nerve density"}, {"measurement": "injured epithelial area compared with untreated controls", "setting": "[4]; Vegf-b−/− mice", "result": "only half the injured area"}, {"measurement": "epithelial healing", "setting": "[4]; wild type mice", "result": "almost complete healing"}, {"measurement": "nerve regeneration", "setting": "[5]", "result": "induced greater nerve regeneration"}, {"measurement": "neovascularization of the cornea", "setting": "cornea", "result": "did not produce any unwanted neovascularization"}, {"measurement": "dendrite length and branching", "setting": "[6]", "result": "longer dendrites and more branches"}]}
